Data reported in article PMC3253312 (Steroids, 2011).

Substrate: C[C@]12CCC(=O)C=C1CC[C@@H]1[C@@H]2CC[C@]2(C)C(=O)CC[C@@H]12
Test: cells, lysate or membranes
Conditions: substrate

B1: wild-type aromatase (Homo sapiens) (protein)
chain: MVLEMLNPIHYNITSIVPEAMPAATMPVLLLTGLFLLVWNYEGTSSIPGPGYCMGIGPLISHGRFLWMGIGSACNYYNRVYGEFMRVWISGEETLIISKSSSMFHIMKHNHYSSRFGSKLGLQCIGMHEKGIIFNNNPELWKTTRPFFMKALSGPGLVRMVTVCAESLKTHLDRLEEVTNESGYVDVLTLLRRVMLDTSNTLFLRIPLDESAIVVKIQGYFDAWQALLIKPDIFFKISWLYKKYEKSVKDLKDAIEVLIAEKRRRISTEEKLEECMDFATELILAEKRGDLTRENVNQCILEMLIAAPDTMSVSLFFMLFLIAKHPNVEEAIIKEIQTVIGERDIKIDDIQKLKVMENFIYESMRYQPVVDLVMRKALEDDVIDGYPVKKGTNIILNIGRMHRLEFFPKPNEFTLENFAKNVPYRYFQPFGFGPRGCAGKYIAMVMMKAILVTLLRRFHVKTLQGQCVESIQKIHDLSLHPDETKNMLEMIFTPRNSDRCLEH
Work on B1 yielded a Km (other: WT aromatase) of 0.0273 ± 0.0025 µM and a Vmax (other: WT aromatase) of 5.32e-07 µmol/min/mg.

B2: aromatase F221Y mutant (Homo sapiens; F221Y) (protein)
chain: MVLEMLNPIHYNITSIVPEAMPAATMPVLLLTGLFLLVWNYEGTSSIPGPGYCMGIGPLISHGRFLWMGIGSACNYYNRVYGEFMRVWISGEETLIISKSSSMFHIMKHNHYSSRFGSKLGLQCIGMHEKGIIFNNNPELWKTTRPFFMKALSGPGLVRMVTVCAESLKTHLDRLEEVTNESGYVDVLTLLRRVMLDTSNTLFLRIPLDESAIVVKIQGYYDAWQALLIKPDIFFKISWLYKKYEKSVKDLKDAIEVLIAEKRRRISTEEKLEECMDFATELILAEKRGDLTRENVNQCILEMLIAAPDTMSVSLFFMLFLIAKHPNVEEAIIKEIQTVIGERDIKIDDIQKLKVMENFIYESMRYQPVVDLVMRKALEDDVIDGYPVKKGTNIILNIGRMHRLEFFPKPNEFTLENFAKNVPYRYFQPFGFGPRGCAGKYIAMVMMKAILVTLLRRFHVKTLQGQCVESIQKIHDLSLHPDETKNMLEMIFTPRNSDRCLEH
B2 gave a Km (other: F221Y mutant) of 0.0029 ± 0.0003 µM and a Vmax (other: F221Y mutant) of 1.22e-07 µmol/min/mg.

B3: aromatase W224F mutant (Homo sapiens; W224F) (protein)
chain: MVLEMLNPIHYNITSIVPEAMPAATMPVLLLTGLFLLVWNYEGTSSIPGPGYCMGIGPLISHGRFLWMGIGSACNYYNRVYGEFMRVWISGEETLIISKSSSMFHIMKHNHYSSRFGSKLGLQCIGMHEKGIIFNNNPELWKTTRPFFMKALSGPGLVRMVTVCAESLKTHLDRLEEVTNESGYVDVLTLLRRVMLDTSNTLFLRIPLDESAIVVKIQGYFDAFQALLIKPDIFFKISWLYKKYEKSVKDLKDAIEVLIAEKRRRISTEEKLEECMDFATELILAEKRGDLTRENVNQCILEMLIAAPDTMSVSLFFMLFLIAKHPNVEEAIIKEIQTVIGERDIKIDDIQKLKVMENFIYESMRYQPVVDLVMRKALEDDVIDGYPVKKGTNIILNIGRMHRLEFFPKPNEFTLENFAKNVPYRYFQPFGFGPRGCAGKYIAMVMMKAILVTLLRRFHVKTLQGQCVESIQKIHDLSLHPDETKNMLEMIFTPRNSDRCLEH
B3 was tested, and the Km (other: W224F mutant) was 0.067 ± 0.0051 µM and the Vmax (other: W224F mutant) was 1.18e-07 µmol/min/mg.

B4: aromatase M374T mutant (Homo sapiens; M374T) (protein)
chain: MVLEMLNPIHYNITSIVPEAMPAATMPVLLLTGLFLLVWNYEGTSSIPGPGYCMGIGPLISHGRFLWMGIGSACNYYNRVYGEFMRVWISGEETLIISKSSSMFHIMKHNHYSSRFGSKLGLQCIGMHEKGIIFNNNPELWKTTRPFFMKALSGPGLVRMVTVCAESLKTHLDRLEEVTNESGYVDVLTLLRRVMLDTSNTLFLRIPLDESAIVVKIQGYFDAWQALLIKPDIFFKISWLYKKYEKSVKDLKDAIEVLIAEKRRRISTEEKLEECMDFATELILAEKRGDLTRENVNQCILEMLIAAPDTMSVSLFFMLFLIAKHPNVEEAIIKEIQTVIGERDIKIDDIQKLKVMENFIYESMRYQPVVDLVTRKALEDDVIDGYPVKKGTNIILNIGRMHRLEFFPKPNEFTLENFAKNVPYRYFQPFGFGPRGCAGKYIAMVMMKAILVTLLRRFHVKTLQGQCVESIQKIHDLSLHPDETKNMLEMIFTPRNSDRCLEH
For B4, the Km (other: M374T mutant) was 0.0178 ± 0.002 µM and the Vmax (other: M374T mutant) was 4.5e-08 µmol/min/mg.
